Laboratory results published in PMC7432852, “2-Ketoglutarate-Generated In Vitro Enzymatic Biosystem Facilitates Fe(II)/2-Ketoglutarate-Dependent Dioxygenase-Mediated C–H Bond Oxidation for (2S,3R,4S)-4-Hydroxyisoleucine Synthesis” (International Journal of Molecular Sciences, 2020).

How the values were obtained:
[1] = test system: LGOX (L-glutamate oxidase); conditions: 50 mM Tris-HCl pH 7.0, 30 °C; L-Glu 0.5–20 mM
Text: initial rate of 2-KG formation by HPLC, catalase present, Michaelis-Menten fit on LGOX (L-glutamate oxidase)

[2] = substrate: O=C(O)CCC(=O)C(=O)O; assay: initial rate of 4-HIL formation by HPLC, Michaelis-Menten fit; format: biochemical, Bacillus thuringiensis; conditions: 50 mM Tris-HCl pH 7.0, 30 °C, co-substrate L-Ile, FeSO4, L-ascorbic acid, 2-KG 1–40 mM
Text: (§1) initial rate of 4-HIL formation by HPLC, Michaelis-Menten fit on IDO (L-Ile dioxygenase)

[3] = substrate: CC[C@H](C)[C@H](N)C(=O)O; assay: as above; format: biochemical, Bacillus thuringiensis; conditions: 50 mM Tris-HCl pH 7.0, 30 °C, co-substrate 2-KG, FeSO4, L-ascorbic acid, L-Ile 0.5–20 mM
Text: as §1

## N[C@@H](CCC(=O)O)C(=O)O [L-Glu]
[1]
  Km: 2.65 ± 0.11 mM

B1: IDO (L-Ile dioxygenase) (Bacillus thuringiensis) (protein)
chain: MKMSGFSIEEKVHEFESKGFLEISNEIFLQEEENHSLLTQAQLDYYNLEDDAYGECRARSYSRYIKYVDSPDYILDNSNDYFQSKEYNYDDGGKVRQFNSINDSFLCNPLIQNIVRFDTEFAFKTNIIDKSKDLIIGLHQVRYKATKERPSFSSPIWLHKDDEPVVFLHLMNLSNTAIGGDNLIANSPREINQFISLKEPLETLVFGQKVFHAVTPLGTECSTEAFRDILLVTFSYKETK
[2]
  Km: 15.12 ± 0.08 mM
  Vmax: 19.8 µmol/min/mg
  kcat: 9.18 ± 0.07 s⁻¹
[3]
  Km: 6.34 ± 0.12 mM
  Vmax: 8.99 µmol/min/mg
  kcat: 4.18 ± 0.08 s⁻¹
